Experimental data published in article PMC4841555 (2016).

Molecular target: Amyloid-beta(1-42) Aβ(1-42) (Homo sapiens, UniProt P05067)
Test: BLI

Kd	Binder
75 µM	RPITRLRTHQNR [DB3]
1 µM	RPITRLRTHQNRRPITRLRTHQNR [DB3DB3]
